First the molecules themselves.
B1: cyclin B1, full-length (other)
chain: MALRVTRNTKINAENKAKVSMAGAKRVPVTVTAASKPGLRPRTALGDIGNKVSEELQARVPLKREAKTLGTGKGTVKALPKPVEKVPVCEPEVELAEPEPEPELEHVREEKLSPEPILVDNPSPSPMETSGCAPAEEYLCQAFSDVILAVSDVDADDGADPNLCSEYVKDIYAYLRQLEEEQSVRPKYLQGREVTGNMRAILIDWLIQVQMKFRLLQETMYMTVSIIDRFMQNSCVPKKMLQLVGVTAMFIASKYEEMYPPEIGDFAFVTNNTYTKHQIRQMEMKILRVLNFSLGRPLPLHFLRRASKVGEVDVEQHTLAKYLMELSMLDYDMVHFAPSQIAAGAFCLALKILDNGEWTPTLQHYLSYSEDSLLPVMQHLAKNVVMVNCGLTKHMTVKNKYAASKHAKISTLAQLNCTLVQNLSKAVTKA
notes: 47 kDa; also called Ccnb1; CCNB1
B2: Solute carrier family 25, member 5 (SLC25A5) (other, mouse, UniProt P51881 1-298, looked up)
chain: MTDAAVSFAKDFLAGGVAAAISKTAVAPIERVKLLLQVQHASKQITADKQYKGIIDCVVRIPKEQGVLSFWRGNLANVIRYFPTQALNFAFKDKYKQIFLGGVDKRTQFWRYFAGNLASGGAAGATSLCFVYPLDFARTRLAADVGKAGAEREFKGLGDCLVKIYKSDGIKGLYQGFNVSVQGIIIYRAAYFGIYDTAKGMLPDPKNTHIFISWMIAQSVTAVAGLTSYPFDTVRRRMMMQSGRKGTDIMYTGTLDCWRKIARDEGSKAFFKGAWSNVLRGMGGAFVLVLYDEIKKYT
notes: Prey from the ovary cDNA library (pGADT7)
B3: Myosin light chain, alkali, non-muscle (MYLN) (other, mouse, UniProt Q60605 1-151, looked up)
chain: MCDFTEDQTAEFKEAFQLFDRTGDGKILYSQCGDVMRALGQNPTNAEVLKVLGNPKSDEMNVKVLDFEHFLPMLQTVAKNKDQGTYEDYVEGLRVFDKEGNGTVMGAEIRHVLVTLGEKMTEEEVEMLVAGHEDSNGCINYEAFVRHILSG
notes: Prey from the ovary cDNA library (pGADT7); Tags as for the other preys
B4: proteasome subunit β, type 1 (PSMB1) (other, mouse, UniProt O09061 1-240, looked up)
chain: MLSTAAYRDVERELGMGPHGSAGPVQLRFSPYAFNGGTVLAIAGEDFSIVASDTRLSEGFSIHTRDSPKCYKLTDKTVIGCSGFHGDCLTLTKIIEARLKMYKHSNNKAMTTGAIAAMLSTILYSRRFFPYYVYNIIGGLDEEGKGAVYSFDPVGSYQRDSFKAGGSASAMLQPLLDNQVGFKNMQNVEHVPLTLDRAMRLVKDVFISAAERDVYTGDALRICIVTKEGIREETVPLRKD
notes: In vitro: HA tagged; CHO cells: C-terminal MYC tag; 25 kDa; also called Proteasome beta type 1 subunit (PSMB1); pGADT7-PSMB1
B5: ATP synthase, H+ transporting, mitochondrial F0 complex, subunit F (ATP5J) (other, mouse, UniProt P97450 1-108, looked up)
chain: MVLQRIFRLSSVLRSAVSVHLKRNIGVTAVAFNKELDPVQKLFVDKIREYKSKRQASGGPVDIGPEYQQDLDRELYKLKQMYGKGEMDTFPTFKFDDPKFEVIDKPQS
notes: as for B2
B6: mouse RFPL4, full-length (amino acid residues 1-287) (other, UniProt Q8VH31 1-287, looked up)
chain: MAHLFKEKSNCYFCFRCLESPVYLNCGYICCLKCLDSLEKSPEGDGVLCPTCSVVSLKEDIIHAKQLGALVTKIKNLEPQLNFILTMDQGMKIFQVTMTLDVDTAQNHLIISDDLLSVYYTPQKQARKKCAERFHPSPCVLGSSRFTSGRHYWEVVVGTSKEWDIGICKESINRKKAIHLSEKNGFWTVGVRAKKVYSASTDPLTVLRVNPRLRRVGIFLDMLEKSVSFWDLSDGSHIYTFLEIPDTDPFRPFFSPASSYPDGDQEQVLSICPVTNPGIFGIPVNPQ
notes: One entry is used for all tagged forms; CHO cells: C-terminal FLAG (pCMV-Tag4A) or C-terminal MYC (pCMV-Tag5A); Western blot: endogenous protein in mouse tissue lysates; also called mRFPL4; pGBKT7-RFPL4
B7: Microfibrillar-associated protein 2 (MFAP2) (other, mouse, UniProt P55002 17-183, looked up)
chain: QGQYDLDPLPPFPDHVQYNHYGDQIDNADYYDYQEVSPRTPEEQFQSQQQVQQEVIPAPTPEPAAAGDLETEPTEPGPLDCREEQYPCTRLYSIHKPCKQCLNEVCFYSLRRVYVVNKEICVRTVCAHEELLRADLCRDKFSKCGVMAVSGLCQSVAASCARSCGGC
notes: as for B2
B8: Cytochrome C oxidase subunit II (MT-CO2) (other, mouse, UniProt P00405 1-227, looked up)
chain: MAYPFQLGLQDATSPIMEELMNFHDHTLMIVFLISSLVLYIISLMLTTKLTHTSTMDAQEVETIWTILPAVILIMIALPSLRILYMMDEINNPVLTVKTMGHQWYWSYEYTDYEDLCFDSYMIPTNDLKPGELRLLEVDNRVVLPMELPIRMLISSEDVLHSWAVPSLGLKTDAIPGRLNQATVTSNRPGLFYGQCSEICGSNHSFMPIVLEMVPLKYFENWSASMI
notes: as for B2

Series [1] concerns the target T1, HR6A (Ube2a), full-length (mouse, UniProt Q9Z255 1-152).
T1 construct: also called pGADT7-HR6A; MYC-tagged HR6A
The experiment in a line: anti-FLAG co-immunoprecipitation from lysates of cotransfected CHO cells (FLAG-tagged cyclin B1).

Series [2] addresses B6. The experiment in a line: yeast two-hybrid mating screen of the ovary cDNA library with pGBKT7-RFPL4 as bait.
Series [3] has as its target B6. As to the kind of experiment: yeast two-hybrid cotransformation.
The target of series [4] is Lysosomal-associated protein 4 (LAPTM4A) (mouse, UniProt Q60961 1-233). As to the kind of experiment: yeast two-hybrid cotransformation.
The target of the series “cyclin B1, full-length” is B1. As to the kind of experiment: co-immunoprecipitation of 35S-labelled proteins translated in vitro in reticulocyte lysate.
Protocol: The pGBKT7 (MYC-Tagged) and pGADT7 (HA-Tagged) vectors were used as templates for in vitro transcription/translation using [³⁵S]Met and the TNT T7 Coupled Reticulocyte Lysate System (Promega, Madison, Wis.). In vitro translated proteins were combined at room temperature for 1 h, and reciprocal co-immunoprecipitation experiments were performed using mouse anti-MYC monoclonal or rabbit anti-HA polyclonal antibodies (Clontech).
Epitope tagged bait and prey proteins were transcribed by T7 polymerase from pGBKT7 and pGADT7 templates without DNA binding or transactivation domains. As positive control vectors, pGBKT7-murine p53 (MYC-epitope tagged) and pGADT7-SV40 large T (HA-epitope tagged) were used. ³⁵S-methionine was included in translation mixtures to generate products detectable by autoradiography.
The target in series [5] is T1, HR6A (Ube2a), full-length. The experiment in a line: yeast two-hybrid cotransformant growth/fluorescence assay.
Description: (§1) Briefly, after inoculation, the initial fluorescence was checked and the cells were allowed to grow for 40 hr, and then the fluorescence of an oxygen sensitive dye using the [sequence] Biosensor kit (Clontech) was rechecked. Fluorescence was excited at 485 nm, and emission was read at 630 nm. To find the fold increase in fluorescence, an indication of yeast growth in selection media, the fluorescence intensity at time t=40 hr was divided by the initial intensity recorded at time t=0 hr (Fluorescence(t40)/Fluorescence(t0)). The values shown were the means of triplicate measurements of three independent transformants. Standard deviations were indicated by the error bars.
Series [6] concerns the molecule itself. The description is as above.
Description: as §1

T1 sequence (Q9Z255 whole entry): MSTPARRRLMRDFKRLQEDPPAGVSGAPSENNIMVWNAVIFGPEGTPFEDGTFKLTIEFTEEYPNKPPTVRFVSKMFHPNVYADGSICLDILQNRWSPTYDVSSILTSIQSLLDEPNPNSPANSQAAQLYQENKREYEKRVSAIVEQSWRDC

Regarding B1, the binding result in series [1] was “binds”.
Regarding B2, in series [2], the “# of clones” value turned out to be 1 clones.
For B3, the “# of clones” value in series [2] was determined as 3 clones.
Same read-out and setting: then B4, with 7 clones.
For B5, the binding result in series [3] is recorded as “no binding”. In addition, in series [2], the “# of clones” value was 1 clones.
In the case of B6, the binding result is listed as “no binding” in series [4]; “binds” with cyclin B1, full-length; “binds” in series [5]; “no binding” in series [6].
For B7, in series [3], the binding result was “no binding”. Also, the “# of clones” value in series [2] stood at 1 clones.
For B8, the “# of clones” value in series [2] was 2 clones.

(Values after patent publication US20030144205A1 (published 2003).)
